Patent publication US20230357348A1 (AstraZeneca / MedImmune, published 2023)
Starred links: 1 amine or outer side, 2 acyl side, 3 side chain; linkers in the order of their positions; H or OH if unused. Non-standard residues stand in square brackets, D forms with d. Groups on a side chain read outwards from the residue. No end group written: not given here. *: point of attachment. C20 diacid = O=C(O)CCCCCCCCCCCCCCCCCCC(=O)*; C18 diacid = O=C(O)CCCCCCCCCCCCCCCCC(=O)*; γGlu = O=C(O)[C@H](CCC(=O)[*:2])N[*:1]; αMeF = C[C@](N)(Cc1ccccc1)C(=O)O; AEEA = NCCOCCOCC(=O)O; Aib = CC(C)(N)C(=O)O

B1: Peptide 150 (peptide)
peptide: H[Aib]QGTFTSDVSK[αMeF]LDSK([AEEA-AEEA-γGlu-C18 diacid])RAQDFVQWLL[Aib]TE-OH
modifications: N-terminus assumed
SMILES: CC(C)C[C@H](NC(=O)[C@H](Cc1c[nH]c2ccccc12)NC(=O)[C@H](CCC(N)=O)NC(=O)[C@@H](NC(=O)[C@H](Cc1ccccc1)NC(=O)[C@H](CC(=O)O)NC(=O)[C@H](CCC(N)=O)NC(=O)[C@H](C)NC(=O)[C@H](CCCNC(=N)N)NC(=O)[C@H](CCCCNC(=O)COCCOCCNC(=O)COCCOCCNC(=O)CC[C@H](NC(=O)CCCCCCCCCCCCCCCCC(=O)O)C(=O)O)NC(=O)[C@H](CO)NC(=O)[C@H](CC(=O)O)NC(=O)[C@H](CC(C)C)NC(=O)[C@](C)(Cc1ccccc1)NC(=O)[C@H](CCCCN)NC(=O)[C@H](CO)NC(=O)[C@@H](NC(=O)[C@H](CC(=O)O)NC(=O)[C@H](CO)NC(=O)[C@@H](NC(=O)[C@H](Cc1ccccc1)NC(=O)[C@@H](NC(=O)CNC(=O)[C@H](CCC(N)=O)NC(=O)C(C)(C)NC(=O)[C@@H](N)Cc1c[nH]cn1)[C@@H](C)O)[C@@H](C)O)C(C)C)C(C)C)C(=O)N[C@@H](CC(C)C)C(=O)NC(C)(C)C(=O)N[C@H](C(=O)N[C@@H](CCC(=O)O)C(=O)O)[C@@H](C)O
B2: Peptide 518 (peptide)
peptide: H[Aib]QGTFTSDVSK[αMeF]LDTK([AEEA-AEEA-γGlu-γGlu-C18 diacid])RARDFVQWLLE[Aib]G-OH
modifications: N-terminus assumed
SMILES: CC(C)C[C@H](NC(=O)[C@H](Cc1c[nH]c2ccccc12)NC(=O)[C@H](CCC(N)=O)NC(=O)[C@@H](NC(=O)[C@H](Cc1ccccc1)NC(=O)[C@H](CC(=O)O)NC(=O)[C@H](CCCNC(=N)N)NC(=O)[C@H](C)NC(=O)[C@H](CCCNC(=N)N)NC(=O)[C@H](CCCCNC(=O)COCCOCCNC(=O)COCCOCCNC(=O)CC[C@H](NC(=O)CC[C@H](NC(=O)CCCCCCCCCCCCCCCCC(=O)O)C(=O)O)C(=O)O)NC(=O)[C@@H](NC(=O)[C@H](CC(=O)O)NC(=O)[C@H](CC(C)C)NC(=O)[C@](C)(Cc1ccccc1)NC(=O)[C@H](CCCCN)NC(=O)[C@H](CO)NC(=O)[C@@H](NC(=O)[C@H](CC(=O)O)NC(=O)[C@H](CO)NC(=O)[C@@H](NC(=O)[C@H](Cc1ccccc1)NC(=O)[C@@H](NC(=O)CNC(=O)[C@H](CCC(N)=O)NC(=O)C(C)(C)NC(=O)[C@@H](N)Cc1c[nH]cn1)[C@@H](C)O)[C@@H](C)O)C(C)C)[C@@H](C)O)C(C)C)C(=O)N[C@@H](CC(C)C)C(=O)N[C@@H](CCC(=O)O)C(=O)NC(C)(C)C(=O)NCC(=O)O
B3: Peptide 152 (peptide)
peptide: H[Aib]QGTFTSDVSK[αMeF]LDSK([AEEA-AEEA-γGlu-C18 diacid])RAQDFVRWLL[Aib]E-OH
modifications: N-terminus assumed
SMILES: CC(C)C[C@H](NC(=O)[C@H](Cc1c[nH]c2ccccc12)NC(=O)[C@H](CCCNC(=N)N)NC(=O)[C@@H](NC(=O)[C@H](Cc1ccccc1)NC(=O)[C@H](CC(=O)O)NC(=O)[C@H](CCC(N)=O)NC(=O)[C@H](C)NC(=O)[C@H](CCCNC(=N)N)NC(=O)[C@H](CCCCNC(=O)COCCOCCNC(=O)COCCOCCNC(=O)CC[C@H](NC(=O)CCCCCCCCCCCCCCCCC(=O)O)C(=O)O)NC(=O)[C@H](CO)NC(=O)[C@H](CC(=O)O)NC(=O)[C@H](CC(C)C)NC(=O)[C@](C)(Cc1ccccc1)NC(=O)[C@H](CCCCN)NC(=O)[C@H](CO)NC(=O)[C@@H](NC(=O)[C@H](CC(=O)O)NC(=O)[C@H](CO)NC(=O)[C@@H](NC(=O)[C@H](Cc1ccccc1)NC(=O)[C@@H](NC(=O)CNC(=O)[C@H](CCC(N)=O)NC(=O)C(C)(C)NC(=O)[C@@H](N)Cc1c[nH]cn1)[C@@H](C)O)[C@@H](C)O)C(C)C)C(C)C)C(=O)N[C@@H](CC(C)C)C(=O)NC(C)(C)C(=O)N[C@@H](CCC(=O)O)C(=O)O
B4: Peptide 166 (peptide)
peptide: H[Aib]QGTFTSDVSK[αMeF]LDSK([AEEA-AEEA-γGlu-C18 diacid])RARDFVRWLL[Aib]TE-OH
modifications: N-terminus assumed
SMILES: CC(C)C[C@H](NC(=O)[C@H](Cc1c[nH]c2ccccc12)NC(=O)[C@H](CCCNC(=N)N)NC(=O)[C@@H](NC(=O)[C@H](Cc1ccccc1)NC(=O)[C@H](CC(=O)O)NC(=O)[C@H](CCCNC(=N)N)NC(=O)[C@H](C)NC(=O)[C@H](CCCNC(=N)N)NC(=O)[C@H](CCCCNC(=O)COCCOCCNC(=O)COCCOCCNC(=O)CC[C@H](NC(=O)CCCCCCCCCCCCCCCCC(=O)O)C(=O)O)NC(=O)[C@H](CO)NC(=O)[C@H](CC(=O)O)NC(=O)[C@H](CC(C)C)NC(=O)[C@](C)(Cc1ccccc1)NC(=O)[C@H](CCCCN)NC(=O)[C@H](CO)NC(=O)[C@@H](NC(=O)[C@H](CC(=O)O)NC(=O)[C@H](CO)NC(=O)[C@@H](NC(=O)[C@H](Cc1ccccc1)NC(=O)[C@@H](NC(=O)CNC(=O)[C@H](CCC(N)=O)NC(=O)C(C)(C)NC(=O)[C@@H](N)Cc1c[nH]cn1)[C@@H](C)O)[C@@H](C)O)C(C)C)C(C)C)C(=O)N[C@@H](CC(C)C)C(=O)NC(C)(C)C(=O)N[C@H](C(=O)N[C@@H](CCC(=O)O)C(=O)O)[C@@H](C)O
B5: Peptide 153 (peptide)
peptide: H[Aib]QGTFTSDVSK[αMeF]LDSK([AEEA-AEEA-γGlu-C20 diacid])RAQDFVRWLL[Aib]E-OH
modifications: N-terminus assumed
SMILES: CC(C)C[C@H](NC(=O)[C@H](Cc1c[nH]c2ccccc12)NC(=O)[C@H](CCCNC(=N)N)NC(=O)[C@@H](NC(=O)[C@H](Cc1ccccc1)NC(=O)[C@H](CC(=O)O)NC(=O)[C@H](CCC(N)=O)NC(=O)[C@H](C)NC(=O)[C@H](CCCNC(=N)N)NC(=O)[C@H](CCCCNC(=O)COCCOCCNC(=O)COCCOCCNC(=O)CC[C@H](NC(=O)CCCCCCCCCCCCCCCCCCC(=O)O)C(=O)O)NC(=O)[C@H](CO)NC(=O)[C@H](CC(=O)O)NC(=O)[C@H](CC(C)C)NC(=O)[C@](C)(Cc1ccccc1)NC(=O)[C@H](CCCCN)NC(=O)[C@H](CO)NC(=O)[C@@H](NC(=O)[C@H](CC(=O)O)NC(=O)[C@H](CO)NC(=O)[C@@H](NC(=O)[C@H](Cc1ccccc1)NC(=O)[C@@H](NC(=O)CNC(=O)[C@H](CCC(N)=O)NC(=O)C(C)(C)NC(=O)[C@@H](N)Cc1c[nH]cn1)[C@@H](C)O)[C@@H](C)O)C(C)C)C(C)C)C(=O)N[C@@H](CC(C)C)C(=O)NC(C)(C)C(=O)N[C@@H](CCC(=O)O)C(=O)O
B6: Peptide 149 (peptide)
peptide: H[Aib]QGTFTSDVSK[αMeF]LDSK([AEEA-AEEA-γGlu-C18 diacid])RAQDFVRWVVE[Aib]G-OH
modifications: N-terminus assumed
SMILES: CC(C)C[C@H](NC(=O)[C@](C)(Cc1ccccc1)NC(=O)[C@H](CCCCN)NC(=O)[C@H](CO)NC(=O)[C@@H](NC(=O)[C@H](CC(=O)O)NC(=O)[C@H](CO)NC(=O)[C@@H](NC(=O)[C@H](Cc1ccccc1)NC(=O)[C@@H](NC(=O)CNC(=O)[C@H](CCC(N)=O)NC(=O)C(C)(C)NC(=O)[C@@H](N)Cc1c[nH]cn1)[C@@H](C)O)[C@@H](C)O)C(C)C)C(=O)N[C@@H](CC(=O)O)C(=O)N[C@@H](CO)C(=O)N[C@@H](CCCCNC(=O)COCCOCCNC(=O)COCCOCCNC(=O)CC[C@H](NC(=O)CCCCCCCCCCCCCCCCC(=O)O)C(=O)O)C(=O)N[C@@H](CCCNC(=N)N)C(=O)N[C@@H](C)C(=O)N[C@@H](CCC(N)=O)C(=O)N[C@@H](CC(=O)O)C(=O)N[C@@H](Cc1ccccc1)C(=O)N[C@H](C(=O)N[C@@H](CCCNC(=N)N)C(=O)N[C@@H](Cc1c[nH]c2ccccc12)C(=O)N[C@H](C(=O)N[C@H](C(=O)N[C@@H](CCC(=O)O)C(=O)NC(C)(C)C(=O)NCC(=O)O)C(C)C)C(C)C)C(C)C
B7: Peptide 151 (peptide)
peptide: H[Aib]QGTFTSDVSK[αMeF]LDSK([AEEA-AEEA-γGlu-C20 diacid])RAQDFVRWLL[Aib]TE-OH
modifications: N-terminus assumed
SMILES: CC(C)C[C@H](NC(=O)[C@H](Cc1c[nH]c2ccccc12)NC(=O)[C@H](CCCNC(=N)N)NC(=O)[C@@H](NC(=O)[C@H](Cc1ccccc1)NC(=O)[C@H](CC(=O)O)NC(=O)[C@H](CCC(N)=O)NC(=O)[C@H](C)NC(=O)[C@H](CCCNC(=N)N)NC(=O)[C@H](CCCCNC(=O)COCCOCCNC(=O)COCCOCCNC(=O)CC[C@H](NC(=O)CCCCCCCCCCCCCCCCCCC(=O)O)C(=O)O)NC(=O)[C@H](CO)NC(=O)[C@H](CC(=O)O)NC(=O)[C@H](CC(C)C)NC(=O)[C@](C)(Cc1ccccc1)NC(=O)[C@H](CCCCN)NC(=O)[C@H](CO)NC(=O)[C@@H](NC(=O)[C@H](CC(=O)O)NC(=O)[C@H](CO)NC(=O)[C@@H](NC(=O)[C@H](Cc1ccccc1)NC(=O)[C@@H](NC(=O)CNC(=O)[C@H](CCC(N)=O)NC(=O)C(C)(C)NC(=O)[C@@H](N)Cc1c[nH]cn1)[C@@H](C)O)[C@@H](C)O)C(C)C)C(C)C)C(=O)N[C@@H](CC(C)C)C(=O)NC(C)(C)C(=O)N[C@H](C(=O)N[C@@H](CCC(=O)O)C(=O)O)[C@@H](C)O

Columns and labels:
[1] = target: human GLP-1 receptor (hGLP-1R) (human, UniProt P43220 24-463); assay: cell-based or functional assay
[2] = target: human glucagon receptor (hGCGR) (human, UniProt P47871 26-477); assay: cell-based or functional assay
Sequence of human glucagon receptor (hGCGR) (P47871 26-477): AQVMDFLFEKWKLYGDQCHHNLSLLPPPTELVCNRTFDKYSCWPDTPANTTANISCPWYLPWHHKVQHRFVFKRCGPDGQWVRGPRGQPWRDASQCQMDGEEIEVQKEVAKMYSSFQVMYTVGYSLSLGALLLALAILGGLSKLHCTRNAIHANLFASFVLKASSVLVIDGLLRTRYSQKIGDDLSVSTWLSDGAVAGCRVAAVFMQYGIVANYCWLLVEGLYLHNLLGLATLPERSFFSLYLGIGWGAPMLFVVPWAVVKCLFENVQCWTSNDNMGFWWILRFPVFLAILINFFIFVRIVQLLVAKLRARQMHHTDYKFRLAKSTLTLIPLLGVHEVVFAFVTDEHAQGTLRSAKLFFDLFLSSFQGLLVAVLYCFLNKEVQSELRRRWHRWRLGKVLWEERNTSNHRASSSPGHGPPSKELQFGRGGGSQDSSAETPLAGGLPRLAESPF

Binder	hGLP-1R EC50 (pM) [1]	hGluc-R EC50 (pM) [2]
B1	166 pM	355 pM
B2	31 pM	77.3 pM
B3	11.9 pM	20.4 pM
B4	48 pM	270 pM
B5	41.2 pM	99 pM
B6	8.71 pM	2650 pM
B7	111 pM	178 pM
